Laboratory results published in US20100124555A1, “Compositions and Methods for Treating Pancreatic Tumors” (UNIVERSITE DE LA MEDITERRANEE, priority 2007, published 2010).

Legend:
[1] = tested on: Bcl-2, Bax, caspases 8 and 9, PARP in SOJ-6 cells; experiment: SDS-PAGE and western blot of apoptosis proteins; assay type: cell-based, human; conditions: SOJ-6 cells, 24 h
Experimental: SOJ-6 cells were grown in 6-well culture plates in RPMI 1640 medium with 10% FCS. At subconfluency, the medium was removed and replaced for 24 hours by fresh RPMI medium with 10% inactivated FCS. SOJ-6 cells were then incubated with mAb16D10 or Cisplatin for 24 hours. At the end of incubation, cells were washed three times with ice-cold PBS (without […] and Mg^++) harvested and pelleted by centrifugation. Pellets were washed twice and lysed at 4° C. in 0.5 ml of lysis buffer (10 mM Tris-HCl pH 7.4, 150 mM NaCl, 1% Triton X-100, 1 mM benzamidine and phosphatase inhibitors). After lysis, homogenates were clarified by centrifugation at 10,000 g for 10 min at 4° C. An aliquot was saved for protein determination using the bicinchoninic acid assay (Pierce, Rockford, Ill.). Proteins (50 μg/lane) in reducing SDS buffer were separated onto 10, 12, or 15% polyacrylamide with 0.1% SDS (according to the molecular weight range of proteins to be separated). After electrophoretic migration, proteins were silver stained. Alternatively, proteins were transferred onto nitrocellulose membranes using a Mini Transblot electrophoretic cell (BioRad, Hercule, Oreg.), and transferred proteins were immunodetected by using appropriate primary and secondary antibodies. After washes, membranes were developed with a chemoluminescent substrate according to the manufacturer's instructions (Roche Diagnostics, Switzerland). In each experiment, a control was included by omitting primary antibodies or by using a non-immune serum.

SOJ-6 cells [2] = experiment: Annexin V / PI apoptosis assay; assay type: cell-based, human; conditions: antibodies 20 μg/ml, tunicamycin 25 or 50 μg/ml
Experimental: SOJ-6 cells (20.10^4 cells per well) were seeded onto 24 wells plates 72H before to start the experiment. Cells were incubated either with 20 μg/ml 16D10 IgM, or 20 μg/ml of a further recombinant 16D10 IgG1 antibody which contained the 16D10 variable regions linked fused to a human IgG1 constant region and human kappa light region for the heavy and light chains respectively, 25 μg/ml Tunicamycin or 50 μg/ml Tunicamycin. The AnnexinV/PI stainings were performed after 24H of culture using the AnnexinV-FITC Apoptosis Detection Kit I (BD Pharmingen) according to the manufacturer instructions. Stainings were acquired on a FACScan (Becton Dickinson, San Jose, Calif.) and results were analysed using FlowJo Software.

[3] = tested on: 16D10 antigen on SOJ-6 cells; experiment: Flow cytometry detection of antigen at the cell surface, SOJ-6; assay type: binding, human
Experimental: Detection of antigens at the surface of SOJ-6 and PANC-1 cells was carried out by indirect fluorescence under the following conditions: cells were released from culture plates by treatment with a non enzymatic dissociation liquid (Calbiochem) for 15 minutes at 37° C. All subsequent steps were carried out at 4° C. The cells were washed with phosphate buffered saline (PBS), fixed with 2% paraformaldehyde in PBS for 15 minutes, and washed with 1% BSA in PBS for 15 minutes. Antigens were exposed for 2 hours to specific antibodies, washed with PBS, and finally incubated for 45 minutes with appropriate FITC-labeled secondary antibodies. Cells were then washed, resuspended in isoflow buffer, and analyzed on Coulter FACSCalibur device.
Flow cytometry experiments were carried out to investigate whether the antigen recognized by 16D10 was found on the surface of cells. Results are shown in FIGS. 14 and 15, representing SOJ-6 and PANC-1 cells, respectively. […] In each case, 16D10 binding was compared to a negative control and a control mouse IgM (Sigma).

[4] = tested on: cell surface antigens of fixed SOJ-6 cells; experiment: FACS cell surface binding stability on fixed SOJ-6 cells; design: species or system human; conditions: preliminary FACS experiments
Excerpt: Taking in account that most of the antibodies that have been studied so far at Innate Pharma, have kon rate association constants ranging from 5×10^5 to 5×10^6 M^−1s^−1, one can estimate that the recombinant 16D10 antibody bivalent affinity is in the nanomolar order (e.g., 10 to 1 nanoM) which is compatible with the industrial development of a therapeutic antibody.

PANC-1 cells [5] = experiment: MTT cell growth and proliferation assay, PANC-1; assay type: cell-based, human; conditions: PANC-1, increasing concentrations of antibody, 24 h
Experimental: Cell proliferation was determined using MTT assay as previously described (Mosmann et al., 1983 J Immunol Methods, 65(1-2):55-63). Briefly, cells were seeded at subconfluence in appropriate complete media containing 10% FCS in 96-well culture plates. Media were replaced for 24 h by fresh media with 10% inactivated FCS, including increasing concentrations of antibodies directed against FAPP (pAbL64, mAbJ28 and mAb16D10). Cells were washed with PBS and incubated with 100 μl of MTT (0.5 mg/ml) in complete media for 3 h, washed with PBS and finally incubated with DMSO for 30 min at 37° C. Cell growth was determined by measuring absorbance at 550 nm using a MR 5000 microplate spectrophotometer. All independent determinations were done in triplicate and compared to control.

PANC-1 cells [6] = experiment: Cell-cycle distribution by propidium iodide flow cytometry, PANC-1; assay type: cell-based, human
SOJ-6 cells [7] = experiment: Effect of antibodies on SOJ-6 cell proliferation (Example 11); assay type: cell-based, human
Experimental: The effects of the IgM antibody 16D10 and the chimeric antibody rec16D10 on the proliferation of SOJ-6 cells were examined. Cells were incubated in culture with no antibodies, with various amounts of 16D10 or rec16D10 antibodies, or with an irrelevant IgG antibody. Antibody 16D10 reduced cell proliferation by approximately 50% at either 25 or 50 μg/ml, while rec16D10 reduced proliferation by more than 20% and more than 35% at 25 and 50 μg/ml, respectively (FIG. 18).

B1: 16D10: IgM monoclonal antibody recognizing FAPP/BSDL; producing cells deposited with the CNCM under the number I-3188 (antibody, listed as Mus musculus, V domains shown)
VH: QVQLQQSDAELVKPGASVKISCKASGYTFTDHAIHWVKQKPEQGLEWIGYISPGNDVIKFNEKFKGKATLTADKSSSTAYMQLNSLTSEDSAVYFCKRSEGGVFDYWGQGTTLTVS
VL: NIMMTQSPSSLAVSAGEKVTMSCKSSQSVLYSSNQKNFLAWYQQKPGQSPKLLIYWASTRESGVPDRFTGSGSGTDFTLTISSVQAEDLAVYYCHQYLSSYTFGGGTKLEIK
Which Bax protein level [1] does the source give for B1 here?
Its Bax protein level is “increase of Bax protein”.

And the “anti-apoptotic protein Bcl-2 level” value [1]?
Its value is “decrease of the anti-apoptotic protein Bcl-2”.

What about the “mediators of induced apoptosis (caspases, PARP cleavage)” value [1] of the same molecule?
The value was “mediated via caspases 8 and 9, and poly-ADP ribose polymerase (PARP) cleavage”.

What about the “apoptosis by Annexin V and Annexin V/PI staining” value (SOJ-6 cells [2]) of the same molecule?
Its value is “induced significant levels of apoptosis”.

What about the “effect of trypsin incubation on binding to SOJ-6 cells” value ([3]; antibody incubated with trypsin) of the same molecule?
The value was “substantially decrease the binding”.

And the “binding to antigen on SOJ-6 cells” value ([3]; flow cytometry / FACS)?
Its value is “found to bind antigen present on SOJ-6 cells”.

And the “stability of staining on fixed SOJ-6 cells” value [4]?
The value was “seemed stable”.

What about the “% growth of cells” value (PANC-1 cells [5]) of the same molecule?
Its value is “unable to cause a decrease in growth or number of PANC-1 cells”.

What about the “effect on the cell cycle” value (PANC-1 cells [6]) of the same molecule?
The value was “no effect on the cell cycle was observed”.

What about the “reduction of SOJ-6 cell proliferation” value (SOJ-6 cells [7]; 25 μg/ml) of the same molecule?
Its value is “approximately 50%”.

And the “reduction of SOJ-6 cell proliferation” value (SOJ-6 cells [7]; 50 μg/ml)?
The value was “approximately 50%”.
